The values that follow come from patent publication US8344120B2, “Nucleic acid molecules encoding rage fusion proteins” (TransTech Pharma, Inc., priority 2006, dated 2013).

Data set [1] concerns S100b/RAGE-induced production of TNF-α in THP-1 cells. Nature of the data set: S100b/RAGE-induced production of TNF-α in THP-1 cells. In kind it is cell-based. The following applies: 10 μg protein, 24 hours. From the text:
Use of the RAGE fusion proteins of the present invention to modulate expression of the cellular effector TNF-α is shown in FIG. 10. THP-1 myeloid cells may be cultured in RPMI-1640 media supplemented with 10% FBS and induced to secrete TNF-α via stimulation of RAGE with S100b. When such stimulation occurs in the presence of a RAGE fusion protein, induction of TNF-α by S100b binding to RAGE may be inhibited.
Previous work has shown that the myeloid THP-1 cells may secrete TNF-α in response to RAGE ligands. In this assay, THP-1 cells were cultured in RPMI-1640 media supplemented with 10% FBS using a protocol provided by ATCC. […] The amount of TNF-α secreted by the THP-1 cells was measured 24 hours after the addition of the proteins to the cell culture using a commercially available ELISA kit for TNF-α (R&D Systems, Minneapolis, Minn.).

The next data set has as its system mouse model of AD. Nature of the data set: APP transgenic mouse model of AD. In kind it is in vivo, mice. How it is done:
Experiments were performed to evaluate whether TTP-4000 could affect amyloid formation and cognitive dysfunction in a mouse model of AD. The experiments utilized transgenic mice expressing the human Swedish mutant amyloid precursor protein (APP) under the control of the PDGF-B chain promoter. Over time, these mice generate high levels of the RAGE ligand, amyloid beta (Aβ).
The APP mice (male) used in this experiment were designed by microinjection of the human APP gene (with the Swedish and London mutations) into mouse eggs under the control of the platelet-derived growth factor B (PDGF-B) chain gene promoter. The mice were generated on a C57BL/6 background and were developed by Molecular Therapeutics Inc. Animals were fed ad libitum and maintained by brother sister mating. The mice generated from this construct develop amyloid deposits starting at 6 months of age. Animals were aged for 6 months and then maintained for 90 days and sacrificed for amyloid quantification.
APP transgenic mice were administered vehicle or TTP4000 every other day [qod (i.p.)] for 90 days starting at 6 months of age. At the end of the experiment, animals were sacrificed and examined for Aβ plaque burden in the brain (i.e., plaque number). A 6-month control APP group was used to determine the baseline of amyloid deposits. In addition, at the end of the study, the animals were subjected to behavioral (Morris water maze) analysis. The investigators were blinded to the study compounds. Samples were given to the mice at 0.25 ml/mouse/every other day.
For histological examination, the animals were anesthetized with an intraperitoneal injection (IP) of sodium pentobarbital (50 mg/kg). The animals were transcardially perfused with 4° C., phosphate-buffered saline (PBS) followed by 4% paraformaldehyde. The brains were removed and placed in 4% paraformaldehyde over night. The brains were processed to paraffin and embedded. Ten serial 30-μm thick sections through the brain were obtained. Sections were subjected to primary antibody overnight at 4° C. (Aβ peptide antibody) in order to detect the amyloid deposits in the brain of the transgenic animals (Guo et al., J. Neurosci., 22:5900-5909 (2002)). Sections were washed in Tris-buffered saline (TBS) and secondary antibody was added and incubated for 1 hour at room temperature. After washing, the sections were incubated as instructed in the Vector ABC Elite kit (Vector Laboratories) and stained with […] (DAB). The reactions were stopped in water and cover-slipped after treatment with xylene. The amyloid area in each section was determined with a computer-assisted image analysis system, consisting of a Power Macintosh computer equipped with a Quick Capture frame grabber card, Hitachi CCD camera mounted on an Olympus microscope and camera stand. NIH Image Analysis Software, v. 1.55 was used. The images were captured and the total area of amyloid was determined over the ten sections. A single operator blinded to treatment status performed all measurements. Summing the amyloid volumes of the sections and dividing by the total number of sections was done to calculate the amyloid volume.
For quantitative analysis, an enzyme-linked immunosorbent assay (ELISA) was used to measure the levels of human total Aβ, Aβtotal and Aβ1-42 in the brains of APP transgenic mice (Biosource International, Camarillo, Calif.). Aβtotal and Aβ1-42 were extracted from mouse brains by guanidine hydrochloride and quantified as described by the manufacturer. […]

Data set [2] in a line: Solubility of TTP-4000 in formulation buffers. Type of data set: physicochemical. The following applies: citrate versus histidine buffers. The procedure: Formulations containing sodium acetate, sodium citrate, sodium phosphate, sodium succinate, histidine, and sodium chloride were tested along with sucrose and mannitol. Various pH's between 5.5 and 7.0 were also evaluated.
Based on the solubility of the RAGE fusion protein in formulations containing one or more of sodium citrate, histidine, sucrose, mannitol, and Tween 80 at a pH of 7.0 or less, formulations containing one or more of these buffers, lyoprotectants, or surfactant were selected for further study.

Where [3] appears, read: treated for 3 months, qod i.p., versus vehicle and human IgG1.

B1: TTP-4000: four domain RAGE fusion protein: human RAGE N-terminal sequence (to position 251) linked to human IgG Fc (γ1) without hinge; SEQ ID NO: 34/56 (protein)
chain: QNITARIGEPLVLKCKGAPKKPPQRLEWKLNTGRTEAWKVLSPQGGGPWDSVARVLPNGSLFLPAVGIQDEGIFRCQAMNRNGKETKSNYRVRVYQIPGKPEIVDSASELTAGVPNKVGTCVSEGSYPAGTLSWHLDGKPLVPNEKGVSVKEQTRRHPETGLFTLQSELMVTPARGGDPRPTFSCSFSPGLPRHRALRTAPIQPRVWEPVPLEEVQLVVEPEGGAVAPPSVFLFPPKPKDTLMISRTPEVTCVVVDVSHEDPEVKFNWYVDGVEVHNAKTKPREEQYNSTYRVVSVLTVLHQDWLNGKEYKCKVSNKALPAPIEKTISKAKGQPREPQVYTLPPSRDELTKNQVSLTCLVKGFYPSDIAVEWESNGQPENNYKTTPPVLDSDGSFFLYSKLTVDKSRWQQGNVFSCSVMHEALHNHYTQKSLSLSPGK
With B1, the “reduction of S100b induction of TNF-α” value in data set [1] (S100b 0.1 mg/ml FAC) is listed as roughly 70%. The “S100b induction of TNF-α, comparison in words” value in data set [1] (S100b 0.1 mg/ml) is “at least as effective in blocking S100b induction of TNF-α as is sRAGE”. The “inflammatory cytokines IL-1 and TNF-α” value in the data set with mouse model of AD (data not shown) was “can reduce the inflammatory cytokines IL-1 and TNF-α”. For the same molecule, in the data set on mouse model of AD (setting [3]), the “Aβ plaques in the brain” value is reported as “fewer Aβ plaques” and the “cognitive dysfunction (Morris water maze)” value is recorded as “less cognitive dysfunction”. Moreover, the “solubility in formulations, in words” value in data set [2] was “may be more soluble in formulations containing histidine”.
